Experimental data as given in paper PMC4415972.

Legend:
[1] = molecular target: synaptic membrane proteins in SMPL Nanodiscs (immobilised on magnetic beads); assay: ELISA; magnetic bead-based: SMPL Nanodiscs immobilised through the His tag of MSP on Dynabeads; PBS with 0.1% BSA and 25 mM imidazole; AβOs 1 h at 37°C; bound AβOs detected by NU2 antibody or through biotin (Vectastain) with colorimetric HRP substrate; nonspecific binding measured with excess ATA; Kd as Aβ monomer equivalent
[2] = molecular target: binding sites on cultured rat hippocampal neurons; assay: immunostaining of cells or tissue; cultured rat hippocampal neurons; biotinylated STI 30 min at 37°C, then 100 nM AβOs 30 min at 37°C; AβOs detected with NU2, STI with a streptavidin conjugate; in the PIPLC experiment 100 nM fluorescent AβOs were seen directly after 1 h of 0.2 units/mL PIPLC

Row | Substance | increase in assay response relative to unfractionated AβOs [1] [%] | percent reduction of AβO binding [2] [%]
1 | biotin-labeled high MW AβOs (larger than 50 kDa) (from UniProt P05067 672-713; P05067 672-713) (peptide) | 80 | –
2 | biotinylated soybean trypsin inhibitor type II (from UniProt P01070 25-205) (natural protein) | – | 87
